Columns and labels:
MBP-XB3 = tested on: T1, MBP-XB3
T1 sequence: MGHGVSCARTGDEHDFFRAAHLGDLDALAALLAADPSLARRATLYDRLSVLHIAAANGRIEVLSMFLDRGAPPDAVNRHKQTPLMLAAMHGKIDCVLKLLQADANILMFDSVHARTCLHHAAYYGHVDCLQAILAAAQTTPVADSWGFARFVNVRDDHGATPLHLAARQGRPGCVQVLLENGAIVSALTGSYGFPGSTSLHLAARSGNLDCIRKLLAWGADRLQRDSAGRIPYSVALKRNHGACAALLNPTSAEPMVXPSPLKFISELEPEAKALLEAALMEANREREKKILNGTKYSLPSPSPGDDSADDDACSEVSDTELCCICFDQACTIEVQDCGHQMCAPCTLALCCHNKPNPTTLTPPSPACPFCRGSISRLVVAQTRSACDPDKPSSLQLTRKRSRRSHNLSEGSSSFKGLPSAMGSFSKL

Substance: GST-XA21
- transphosphorylation assay with [gamma-32P]ATP (MBP-XB3): GST-XA21 phosphorylated itself and MBP-XB3, but not MBP alone
- transphosphorylation assay with [gamma-32P]ATP (Native MBP [MBP: P0AEX9]): GST-XA21 phosphorylated itself and MBP-XB3, but not MBP alone

From US6750057
